Reference: US20120058906A1 (published 2012)
One block for each binder: values may come before it.

Assays:
[1] = molecular target: T1, Recombinant Human DLL4 (R&D Systems Cat#1506-D4/CF) (human, UniProt Q9NR61 27-524); assay: ECL (MSD Multi-Spot) titration, antigen spotted on plate; Fab 0.03188 µM; blank spot 536;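 also: blank spot per well as comparator with Hit at signal to blank ratio of 4 or more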
T1 construct: Bought recombinant protein; also called delta-like protein 4

[2] = molecular target: T2, rHuman ErbB2/Fc Chimera, CF (R&D Systems Cat#1129-ER) (human, UniProt P04626 23-652); assay: as above
T2 construct: Bought Fc chimera; also called HER2/neu; human epidermal growth factor 2 receptor; Fc part of the bought chimera not given

[3] = molecular target: T3, rHuman IGF-1 sR (IGF-1 sR), CF (R&D Systems Cat#391-GR) (human, UniProt P08069 31-932); assay: as above
T3 construct: Bought soluble receptor; also called insulin-like growth factor-1 soluble receptor; IGF-R1

[4] = molecular target: T4, rHuman HGF R/c-MET/Fc Chimera, CF (R&D Systems Cat#358-MT/CF) (human, UniProt P08581 25-932); assay: as above
T4 construct: Bought Fc chimera; also called HGF R/Fc; hepatocyte growth factor receptor; Fc part of the bought chimera not given

[5] = molecular target: T5, rHuman CD44/Fc Chimera, CF (R&D Systems Cat#3660-CD) (human, UniProt P16070 21-220); assay: as above
T5 construct: Bought Fc chimera; Fc part of the bought chimera not given

[6] = molecular target: T1, Recombinant Human DLL4 (R&D Systems …); assay: ECL (MSD Multi-Spot) titration, antigen spotted on plate; Fab 0.51 µM; blank spot 1096;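 also: blank spot per well as comparator with Hit at signal to blank ratio of 4 or more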
[7] = molecular target: T2, rHuman ErbB2/Fc Chimera, CF (R&D …); assay: as above
[8] = molecular target: T3, rHuman IGF-1 sR (IGF-1 sR), CF (R&D …); assay: as above
[9] = molecular target: T4, rHuman HGF R/c-MET/Fc Chimera, CF (R&D …); assay: as above
[10] = molecular target: T5, rHuman CD44/Fc Chimera, CF (R&D Systems …); assay: as above
[11] = molecular target: T1, Recombinant Human DLL4 (R&D Systems …); assay: ECL (MSD Multi-Spot) titration, antigen spotted on plate; Fab 0.00797 µM; blank spot 364;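 also: blank spot per well as comparator with Hit at signal to blank ratio of 4 or more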
[12] = molecular target: T2, rHuman ErbB2/Fc Chimera, CF (R&D …); assay: as above
[13] = molecular target: T3, rHuman IGF-1 sR (IGF-1 sR), CF (R&D …); assay: as above
[14] = molecular target: T4, rHuman HGF R/c-MET/Fc Chimera, CF (R&D …); assay: as above
[15] = molecular target: T5, rHuman CD44/Fc Chimera, CF (R&D Systems …); assay: as above
[16] = molecular target: T1, Recombinant Human DLL4 (R&D Systems …); assay: ECL (MSD Multi-Spot) titration, antigen spotted on plate; Fab 0.1275 µM; blank spot 530;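 also: blank spot per well as comparator with Hit at signal to blank ratio of 4 or more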
[17] = molecular target: T2, rHuman ErbB2/Fc Chimera, CF (R&D …); assay: as above
[18] = molecular target: T3, rHuman IGF-1 sR (IGF-1 sR), CF (R&D …); assay: as above
[19] = molecular target: T4, rHuman HGF R/c-MET/Fc Chimera, CF (R&D …); assay: as above
[20] = molecular target: T5, rHuman CD44/Fc Chimera, CF (R&D Systems …); assay: as above
[21] = molecular target: T3, rHuman IGF-1 sR (IGF-1 sR), CF (R&D …); assay: ECL (MSD Multi-Spot) titration, antigen spotted on plate; Fab 0.0192 µM; blank spot 751
[22] = molecular target: T3, rHuman IGF-1 sR (IGF-1 sR), CF (R&D …); assay: ECL (MSD Multi-Spot) titration, antigen spotted on plate; Fab 0.096 µM; blank spot 917
[23] = molecular target: T3, rHuman IGF-1 sR (IGF-1 sR), CF (R&D …); assay: ECL (MSD Multi-Spot) titration, antigen spotted on plate; Fab 0.48 µM; blank spot 2945
[24] = molecular target: T1, Recombinant Human DLL4 (R&D Systems …); assay: ECL (MSD Multi-Spot) titration, antigen spotted on plate; Fab 0.9375 nM; blank spot 153;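 also: blank spot per well as comparator with Hit at signal to blank ratio of 4 or more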
[25] = molecular target: T2, rHuman ErbB2/Fc Chimera, CF (R&D …); assay: as above
[26] = molecular target: T3, rHuman IGF-1 sR (IGF-1 sR), CF (R&D …); assay: as above
[27] = molecular target: T5, rHuman CD44/Fc Chimera, CF (R&D Systems …); assay: as above
[28] = molecular target: T1, Recombinant Human DLL4 (R&D Systems …); assay: ECL (MSD Multi-Spot) titration, antigen spotted on plate; Fab 3.75 nM; blank spot 191;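 also: blank spot per well as comparator with Hit at signal to blank ratio of 4 or more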
[29] = molecular target: T2, rHuman ErbB2/Fc Chimera, CF (R&D …); assay: as above
[30] = molecular target: T3, rHuman IGF-1 sR (IGF-1 sR), CF (R&D …); assay: as above
[31] = molecular target: T5, rHuman CD44/Fc Chimera, CF (R&D Systems …); assay: as above
[32] = molecular target: T1, Recombinant Human DLL4 (R&D Systems …); assay: ECL (MSD Multi-Spot) titration, antigen spotted on plate; Fab 15 nM; blank spot 536;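 also: blank spot per well as comparator with Hit at signal to blank ratio of 4 or more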
[33] = molecular target: T2, rHuman ErbB2/Fc Chimera, CF (R&D …); assay: as above
[34] = molecular target: T3, rHuman IGF-1 sR (IGF-1 sR), CF (R&D …); assay: as above
[35] = molecular target: T5, rHuman CD44/Fc Chimera, CF (R&D Systems …); assay: as above
[36] = molecular target: T1, Recombinant Human DLL4 (R&D Systems …); assay: ECL (MSD Multi-Spot) titration, antigen spotted on plate; Fab 60 nM; blank spot 1433;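 also: blank spot per well as comparator with Hit at signal to blank ratio of 4 or more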
[37] = molecular target: T2, rHuman ErbB2/Fc Chimera, CF (R&D …); assay: as above
[38] = molecular target: T3, rHuman IGF-1 sR (IGF-1 sR), CF (R&D …); assay: as above
[39] = molecular target: T5, rHuman CD44/Fc Chimera, CF (R&D Systems …); assay: as above

ECL signal [1]: 1280
ECL signal [2]: 584
ECL signal [3]: 765
ECL signal [4]: 693
ECL signal [5]: 653
ECL signal [6]: 5180
ECL signal [7]: 1530
ECL signal [8]: 2240
ECL signal [9]: 1990
ECL signal [10]: 2010
ECL signal [11]: 872
ECL signal [12]: 493
ECL signal [13]: 564
ECL signal [14]: 419
ECL signal [15]: 490
ECL signal [16]: 2380
ECL signal [17]: 857
ECL signal [18]: 1040
ECL signal [19]: 853
ECL signal [20]: 926
B1: Fab VH4-34_IGHD7-27*01_IGHJ4*01 & L5_IGKJ1*01 (Fab, V domains shown)
VH: QVQLQQWGAGLLKPSETLSLTCAVYGGSFSGYYWSWIRQPPGKGLEWIGEINHSGSTNYNPSLKSRVTISVDTSKNQFSLKLSSVTAADTAVYYCARANWGDYFDYWGQGTLVTVSS
VL: DIQMTQSPSSVSASVGDRVTITCRASQGISSWLAWYQQKPGKAPKLLIYAASSLQSGVPSRFSGSGSGTDFTLTISSLQPEDFATYYCQQANSFPPWTFGQGTKVEIKR
notes: Made as a Fab in E. coli: VH joined to the CH1 of Plasmid A (Flag and His tags), VL joined to the kappa constant region of Plasmid C

ECL signal [21]: 1830
ECL signal [22]: 2450
ECL signal [23]: 8930
B2: Fab VH1-46_IGHD6-13*01_IGHJ4*01 & A27_IGKJ1*01 (Fab, V domains shown)
VH: QVQLVQSGAEVKKPGASVKVSCKASGYTFTSYYMHWVRQAPGQGLEWMGIINPSGGSTSYAQKFQGRVTMTRDTSTSTVYMELSSLRSEDTAVYYCAREGYSSSWYDYFDYWGQGTLVTVSS
VL: not shown
notes: as for B1

ECL signal [24]: 453
ECL signal [25]: 268
ECL signal [26]: 204
ECL signal [27]: 251
ECL signal [28]: 1570
ECL signal [29]: 291
ECL signal [30]: 314
ECL signal [31]: 307
ECL signal [32]: 7730
ECL signal [33]: 740
ECL signal [34]: 859
ECL signal [35]: 748
ECL signal [36]: 17300
ECL signal [37]: 2160
ECL signal [38]: 2670
ECL signal [39]: 2360
B3: Fab VH1-3_IGHD4-23*01_IGHJ4*01 & L12_IGKJ1*01 (Fab, V domains shown)
VH: QVQLVQSGAEVKKPGASVKVSCKASGYTFTSYAMHWVRQAPGQRLEWMGWSNAGNGNTKYSQEFQGRVTITRDTSASTAYMELSSLRSEDMAVYYCARDDYGGNSDYFDYWGQGTLVTVSS
VL: not shown
